4 molecules from patent US20190331690A1, “BIOTHIOL DETECTION COMPOSITION COMPRISING REDOX REGULATION PROTENIN” (INDUSTRY-UNIVERSITY COOPERATION FOUNDATION HANYANG …, priority 2016, published 2019) can be followed below.

For series [1], the target named is T1, OhrR (Bacillus subtilis, UniProt O34777).
T1 construct: made in house
Nature of the series: Biochip detection of LMW biothiols (His6-tag OhrR, HisProbe-HRP, TMB absorbance at 450 nm). It is filed as biochemical. As to conditions: same concentration (final 100 μM biothiol), CHP final 5 μM, 10 minutes. The protocol: A biochip method is for […] using His6-tag of OhrR, rather than by labeling with fluorescence or a DNAzyme, according to a principle that OhrR is detached from dsDNA attached to the surface of a biochip in the presence of LMW biothiols, thereby reducing a detection signal.
150 μL of 5 mg/mL NeutrAvidin® (Thermo Scientific, USA) diluted with a coating buffer (100 mM Na2HPO4, 50 mM citric acid) was put into each well of a transparent 96-well plate, and reacted at 37° C. for 4 to 5 hours, and then an unbound residue was washed with TBS four times. After washing, 300 μL of a Seablock blocking buffer (Thermo Scientific, USA) was put into each well and shaken at room temperature for 2 hours for blocking (process of coating NeutrAvidin-unbound surface to prevent non-specific reaction), followed by re-washing with TBS four times. […]
(§1) 50 μL of one of CHP (final 5 μM) and a LMW biothiol (final 100 μM for each of L-cysteine, homocysteine and GSH) was simultaneously put into each well using the biochip to which biotin-dsDNA and His6-tag OhrR were fixed to the NeutrAvidin-coated plate, reacted at room temperature for 10 minutes, and washed with TBS for 4 times. […] After 5 minutes, 2M sulfuric acid was added to stop the reaction, and absorbance was measured at 450 nm. […]

Series [2] has as its target T1, OhrR. Put plainly: OhrR-biothiol binding by MALDI-TOF MS. Set-up: species or system B. subtilis. Conditions: 300 nM OhrR, 3 μM CHP. The protocol: It was confirmed whether it is possible to quantitatively analyze the binding of OhrR and a biothiol using a Matrix-Assisted Laser Desorption Ionization-Time-of-Flight Mass Spectrometry (MALDI-TOF mass spectrometer; MALDI-TOF MS).
1 mL of a 300 nM OhrR-containing buffer (20 mM Tris (pH 8.0), 100 mM NaCl, 5% Glycerol) was mixed with a biothiol (Cys, Hcy or GSH) at each concentration (0, 1, 2, 4, 8, 16, 32, or 64 μM). After 3 μM CHP reacted with each resulting mixture for 2 minutes, 110 μL of 100% TCA was treated to stop the oxidation reaction, and precipitate OhrR. To alkylate the precipitated OhrR, 50 mM iodoacetamide was treated, thereby blocking a cysteine residue of the reduced OhrR. The protein was isolated by sodium dodecyl sulphate-polyacrylamide gel electrophoresis (SDS-PAGE), and then a band corresponding to OhrR was cut out and treated with trypsin (37° C., 12 hours or more), followed by extraction from the gel. 0.5 μL of the extracted peptides were treated with 0.5 μL of a-cyano-4-hydroxycinnamic acid (CHCA) (in 50% acetonitrile, 1% TFA) and dehydrated, and then subjected to MALDI-TOF analysis. The MADI-TOF analysis was performed using a 4700 Proteomics Analyzer instrument (Applied Biosystems).

Series [3] concerns the target T2, His6-OhrR (Bacillus subtilis, UniProt O34777 SEQ:1-147).
T2 sequence: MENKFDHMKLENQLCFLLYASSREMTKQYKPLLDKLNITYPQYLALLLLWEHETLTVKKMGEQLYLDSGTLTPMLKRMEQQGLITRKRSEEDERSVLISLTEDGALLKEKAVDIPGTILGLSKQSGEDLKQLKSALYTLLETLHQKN
Put plainly: plate assay on NeutrAvidin, 5 uM OhrR, TBS, HisProbe-HRP readout; signal reduced by CHP plus biothiol. Conditions: tags: His6; chain copies: 2; label: biotin. The protocol:
150 μL of 5 mg/mL NeutrAvidin® (Thermo Scientific, USA) diluted with a coating buffer (100 mM Na₂HPO₄, 50 mM citric acid) was put into each well of a transparent 96-well plate, and reacted at 37° C. for 4 to 5 hours, and then an unbound residue was washed with TBS four times. After washing, 300 μL of a Seablock blocking buffer (Thermo Scientific, USA) was put into each well and shaken at room temperature for 2 hours for blocking (process of coating NeutrAvidin-unbound surface to prevent non-specific reaction), followed by re-washing with TBS four times. 100 μL of a biotin-DNA solution diluted with a TBS buffer to 1 μM was put into each well of the blocking-completed microplate, and reacted at room temperature for 1 hour, followed by washing with TBS four times. […]
as §1

The target in series [4] is T3, OhrR (organic hydroperoxide regulator) (Bacillus subtilis, UniProt O34777 SEQ:1-147).
T3 sequence: T2 sequence
Put plainly: BLI; 50 uM OhrR, TBS; binding thickness about 4.3 nm, falls to about 1 nm with CHP plus biothiol; CHP or biothiol alone still binds. As to conditions: chain copies: 2; label: biotin.

The target in series [5] is T4, FLAG-OhrR (Bacillus subtilis, UniProt O34777 SEQ:1-147).
T4 sequence: T2 sequence
Put plainly: pulldown; anti-FLAG beads, 5 uM OhrR, 100 nM DNA, TBS; released by CHP plus cysteine, chemiluminescence readout. As to conditions: tags: FLAG (DYKDDDDK), expressed in E. coli; chain copies: 2; label: 5' biotin on complementary strand; 5' single-stranded peroxidase DNAzyme plus T9 linker overhang. The protocol: After unbound dsDNA was removed by spin-down, 160 μL of a buffer (Tris Buffered Saline, TBS)->20 μL of LMW biothiols (by concentration)->20 μL of CHP (500 μM) were sequentially added to each tube, followed by shaking for 5 minutes. Afterward, 200 μL of a supernatant obtained by spin-down was transferred to a 96-well plate, and fluorescence or chemiluminescence was measured. The reducing agent (DTT)-untreated sample may be used for measuring free LMW biothiols, and the reducing agent-treated sample may be used for measuring total LMW biothiols [FIG. 9].
200 μL of the DNAzyme (5′-GG GTT GGG CGG GAT GGG-3′ [SEQ ID NO: 6], synthesized by IDT)-bound OhrR-binding dsDNA was recovered from a supernatant, and 20 μL of a suspension of NeutrAvidin®-coated beads (Thermo Scientific, USA) was added thereto, followed by shaking at room temperature for 30 minutes. Afterward, washing was performed with a TBS (20 mM Tris, 150 mM NaCl, pH 7.4) buffer four times. To induce DNAzyme activity, 180 μL of a TBS buffer was mixed with 20 μL of 1 μM Hemin (Calbiochem, USA) (in TBS) solution to reach the final volume of 200 μL, the beads were precipitated, and then the resulting solution was left at room temperature under a dark condition for 15 minutes or more. […]

For series [6], the target named is T3, OhrR (organic hydroperoxide regulator). Nature of the series: FP; 50 nM DNA, 300 nM OhrR; 20 mM Tris pH 8.0, 150 mM NaCl, 5% glycerol; dissociates on CHP plus Cys/Hcy/GSH. Conditions: chain copies: 2; label: 6-FAM. The protocol: The binding activity between OhrR and fluorescence (6FAM, 6-carboxyfluorescein)-labeled OhrR-binding DNA was measured every 10 seconds using an LS55 luminescence spectrometer (PerkinElmer) after dissolution in 3 mL of a buffer at a concentration under the experimental conditions. When OhrR binds to DNA, an anisotropy value (Anis) increases. However, when OhrR is dissociated from DNA, an anisotropy value decreases. In each experiment, three representative biothiols such as cysteine (Cys), homocysteine (Hcy) and glutathione (GSH) were treated at various concentrations (0, 1, 2, 4, 8, 16, 32, and 64 μM). While OhrR was bound to DNA in the presence of only a free biothiol, a real-time dissociation rate of OhrR from DNA was measured by treating a type of representative organic hydroperoxide, that is, cumene hydroperoxide (CHP) (treated at 300 sec).

Series [7] deals with T4, FLAG-OhrR. Put plainly: pulldown; anti-FLAG beads, 2 uM OhrR, 100 nM DNA, TBS; released by CHP plus biothiol. Conditions: tags: FLAG (DYKDDDDK), expressed in E. coli; chain copies: 2; label: 6-FAM. The protocol:
First, 30 μL of M2 FLAG affinity beads (Sigma, A2220) were added to respective tubes corresponding to the number of samples, and FLAG-tagged OhrR (2 μM) was bound thereto for 1 hour to reach the total volume of 200 μL (when OhrR is bound to the His6 tag, NTA-Beads can also be used). To remove unbound OhrR, after spin-down, a supernatant was removed, fluorophore or DNAzyme-bound OhrR-binding dsDNA (100 nM, SEQ ID NOs: 1 and 2) was bound to the OhrR-bound beads for 30 minutes. […] Afterward, 200 μL of a supernatant obtained by spin-down was transferred to a 96-well plate, and fluorescence or chemiluminescence was measured. […]
OhrR-binding dsDNA was bound with a fluorescent factor FAM, and 200 μL of the final supernatant was transferred to a 96 well plate, followed by fluorescence measurement using a multi plate reader (Variokan, Thermo Scientific). In the fluorescence measurement, a fluorescent signal value at a 525 nm emission wavelength obtained at an excitation wavelength of 480 nm was obtained, and a fluorescence value of each well was corrected using a well only containing a buffer without a fluorescent factor as a reference value, followed by comparing these values.

Where a chain is given by its changes, count along the chain named.

As to `N[C@@H](CS)C(=O)O` [Cys, cysteine], the “absorbance signal reducing effect compared with homocysteine or GSH” value in series [1] is reported as “higher absorbance signal reducing effect”. Moreover, the “detection signal level among the measured LMW biothiols” value in series [2] is “highest detection signal level”.

B1: OhrR operator dsDNA, biotin (dsDNA)
DNA 1: TACAATTAAATTGTATACAATTAAATTGTA
DNA 2: B1 DNA 1 with A8T, A23T
Consider B1, for which the binding result in series [3] and in series [4] was “binds” throughout.

B2: DNAzyme-linked OhrR operator dsDNA probe (dsDNA)
DNA 1: GGGTTGGGCGGGATGGGTTTTTTTTTTACAATTAAATTGTATACAATTAAATTGTA
DNA 2: B1 DNA 1 with A8T, A23T
For the molecule B2, the binding result in series [5] is “binds”.

B3: OhrR operator dsDNA, 6FAM (dsDNA)
DNA 1: B1 DNA 1
DNA 2: B1 DNA 1 with A8T, A23T
With B3, the binding result in series [6] and in series [7] was “binds” in each case.
